For test [1], the target named is T1, Utp4 (UniProt Q06679 1-776).
T1 construct: Utp4, subunit of UtpA; S. cerevisiae is surmised from PDB 5WLC and the printed residue numbers; also called His6-tagged Utp4; Upt4; source: E. coli BL21(DE3), purified (HisTrap, heparin)
T1 sequence: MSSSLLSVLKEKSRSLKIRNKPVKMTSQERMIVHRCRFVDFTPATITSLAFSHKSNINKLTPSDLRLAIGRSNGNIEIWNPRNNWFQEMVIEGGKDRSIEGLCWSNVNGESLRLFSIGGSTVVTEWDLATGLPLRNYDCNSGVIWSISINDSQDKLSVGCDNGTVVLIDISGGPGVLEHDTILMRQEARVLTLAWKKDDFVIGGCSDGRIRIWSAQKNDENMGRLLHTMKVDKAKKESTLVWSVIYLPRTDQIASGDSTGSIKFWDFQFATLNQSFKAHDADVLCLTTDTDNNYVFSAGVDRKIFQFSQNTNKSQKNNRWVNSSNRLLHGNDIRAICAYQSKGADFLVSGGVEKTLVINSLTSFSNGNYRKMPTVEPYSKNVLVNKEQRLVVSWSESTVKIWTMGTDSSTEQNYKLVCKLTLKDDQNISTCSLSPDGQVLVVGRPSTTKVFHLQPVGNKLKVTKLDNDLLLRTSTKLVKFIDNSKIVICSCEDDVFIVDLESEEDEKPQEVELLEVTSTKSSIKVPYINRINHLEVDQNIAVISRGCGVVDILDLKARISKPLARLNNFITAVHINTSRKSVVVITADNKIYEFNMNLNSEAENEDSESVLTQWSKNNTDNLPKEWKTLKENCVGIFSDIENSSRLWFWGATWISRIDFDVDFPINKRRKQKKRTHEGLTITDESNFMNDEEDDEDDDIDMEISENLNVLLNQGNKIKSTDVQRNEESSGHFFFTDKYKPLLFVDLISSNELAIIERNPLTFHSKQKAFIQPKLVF
The test can be described thus: co-purification; purified Utp5–Utp15 CTD complex, Utp8–Utp9 CTD complex and His6-tagged Utp4 mixed; HisTrap and gel filtration. As to conditions: both partners purified. For orientation: SEC sorts molecules by how far they enter the pores of the column.

Test [2] concerns the target T1, Utp4. The test can be described thus: cross-linking; UtpA sub-complex (0.5 μg/μL) with 0.5 mM BS^3 at RT for 45 min, quenched with 20 mM NH4HCO3; LC-MS/MS. To be noted: both partners purified.

Results on four molecules are retold here after paper PMC6718413, “Improving mass spectrometry analysis of protein structures with arginine-selective chemical cross-linkers” (Nature Communications, 2019).

B1: Utp8–Utp9 CTD complex (complex)
chain 1: DYPKTLTFLLTHPLFPLSRTRNLLSLLRDQPRLFKQAIVTCPNLPLNELLEELFSIRNRELLLDISFRILQDFTRDSIKQEMKKLSKLDVQNFIEFITSGGEDSSPECFNPSQSTQLFQLLSLVLDSIGLFSLEGALLENLTLYIDKQVEIAERNTELWNLIDTKGFQHGFASSTFDNGTSQKRALPTYTMEYLDI
chain 2: QPEVQHEKKETETKINKKVSKSDQVEIANILSSHLEANSTEILDDLMSGSWTEPEIKKFILTKINTVDHLSKIFLTISKSITQNPWNEENLLPLWLKWLLTLKSGELNSIKDKHTKKNCKHLKSALRSSEEILPVLLGIQGRLEMLRRQAKLREDLAQLSMQEGEDDEIEVIEHSNVISNPLQDQASPVEKLEPDSIVYANGESDEFVD
notes: Utp9 residues 361-569, as m17; This complex was formed before it was mixed with His6-Utp4
As for B1, the binding result with Utp4 [1] was “binds”.

B2: Utp5–Utp15 CTD complex (complex)
chain 1: TTGTVTVILSQALQSNDHSLLETVLNNRDERVIRDTIFRLKPALAVILLERLAERIARQTHRQGPLNVWVKWCLIIHGGYLVSIPNLMSTLSSLHSTLKRRSDLLPRLLALDARLDCTINKFKTLNYEAGDIHSSEPVVEEDEDDVEYNEELDDAGLIE
chain 2: RSQRRMRAFERNINQFKWSEALDNAFVPGMAKELTLTVLQELRKRGKVRVALYGRDESTLEPLLNWCLKGIEDVRSASIVADWVAVVLELYGNTLESSPVLQELMIDLKTKVRHEIHKSKEAQRIEGMLQLLTS
notes: Utp5 residues 433-591, as m14; Utp15 residues 380-513, as m15; This complex was formed before it was mixed with His6-Utp4
On to B2, for which the binding result with Utp4 [1] was “binds”.

B3: C-terminal domain (CTD) of Utp5 (residue 433-591) (domain or fragment, UniProt Q04177 433-591, looked up)
chain: B2 chain 1
notes: Utp5, subunit of UtpA, residues 433-591; The tags were cleaved with Ulp1; also called Utp5 CTD
B3: the binding result in the test with Utp4 [2] is “binds”.

B4: CTD of Utp15 (residue 380-513) (domain or fragment, UniProt Q04305 380-513, looked up)
chain: B2 chain 2
notes: Utp15, subunit of UtpA, residues 380-513; The tags were cleaved with Ulp1; also called Utp15 CTD
B4: in the test with Utp4 [2], the binding result is “binds”.
